Where two headings read alike, the source gives them in different places.
T1: huMUC16, AA13789-14451
T1 construct: also called MUC16 Antigen (human MUC16 AA13789-14451)
T1 chain: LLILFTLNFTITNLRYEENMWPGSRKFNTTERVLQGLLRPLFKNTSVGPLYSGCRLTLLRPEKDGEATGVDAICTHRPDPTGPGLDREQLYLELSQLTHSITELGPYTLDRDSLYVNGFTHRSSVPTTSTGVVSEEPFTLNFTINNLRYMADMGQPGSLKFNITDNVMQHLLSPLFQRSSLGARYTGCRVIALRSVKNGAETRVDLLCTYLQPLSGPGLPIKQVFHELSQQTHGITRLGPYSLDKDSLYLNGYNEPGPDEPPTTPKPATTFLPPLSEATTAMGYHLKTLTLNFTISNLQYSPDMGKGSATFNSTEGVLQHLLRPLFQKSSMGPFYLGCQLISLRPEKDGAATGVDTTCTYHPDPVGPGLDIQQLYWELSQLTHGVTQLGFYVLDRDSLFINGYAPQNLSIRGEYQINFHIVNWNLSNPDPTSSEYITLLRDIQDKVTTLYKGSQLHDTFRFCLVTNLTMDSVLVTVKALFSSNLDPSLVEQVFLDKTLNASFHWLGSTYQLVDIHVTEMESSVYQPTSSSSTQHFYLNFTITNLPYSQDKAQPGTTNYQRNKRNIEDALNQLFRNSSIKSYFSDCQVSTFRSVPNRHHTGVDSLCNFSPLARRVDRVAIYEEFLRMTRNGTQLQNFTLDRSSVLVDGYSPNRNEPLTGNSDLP

T2: huMUC16, AA14198-14507
T2 chain: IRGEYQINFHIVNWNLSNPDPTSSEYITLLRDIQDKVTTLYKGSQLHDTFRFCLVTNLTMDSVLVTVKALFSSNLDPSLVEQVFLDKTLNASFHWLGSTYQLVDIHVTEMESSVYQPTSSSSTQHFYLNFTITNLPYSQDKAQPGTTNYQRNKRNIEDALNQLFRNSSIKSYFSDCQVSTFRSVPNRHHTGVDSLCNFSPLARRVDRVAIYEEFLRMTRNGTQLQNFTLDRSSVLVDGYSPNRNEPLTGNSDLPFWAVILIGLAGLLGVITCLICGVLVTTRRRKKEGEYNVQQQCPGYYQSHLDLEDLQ

T3: HEK293-MUC16 (13810-14507) (human, UniProt Q8WXI7 13810-14507)
T3 construct: range 13810-14507; also called MUC16 overexpressed HEK293 cells
T3 sequence: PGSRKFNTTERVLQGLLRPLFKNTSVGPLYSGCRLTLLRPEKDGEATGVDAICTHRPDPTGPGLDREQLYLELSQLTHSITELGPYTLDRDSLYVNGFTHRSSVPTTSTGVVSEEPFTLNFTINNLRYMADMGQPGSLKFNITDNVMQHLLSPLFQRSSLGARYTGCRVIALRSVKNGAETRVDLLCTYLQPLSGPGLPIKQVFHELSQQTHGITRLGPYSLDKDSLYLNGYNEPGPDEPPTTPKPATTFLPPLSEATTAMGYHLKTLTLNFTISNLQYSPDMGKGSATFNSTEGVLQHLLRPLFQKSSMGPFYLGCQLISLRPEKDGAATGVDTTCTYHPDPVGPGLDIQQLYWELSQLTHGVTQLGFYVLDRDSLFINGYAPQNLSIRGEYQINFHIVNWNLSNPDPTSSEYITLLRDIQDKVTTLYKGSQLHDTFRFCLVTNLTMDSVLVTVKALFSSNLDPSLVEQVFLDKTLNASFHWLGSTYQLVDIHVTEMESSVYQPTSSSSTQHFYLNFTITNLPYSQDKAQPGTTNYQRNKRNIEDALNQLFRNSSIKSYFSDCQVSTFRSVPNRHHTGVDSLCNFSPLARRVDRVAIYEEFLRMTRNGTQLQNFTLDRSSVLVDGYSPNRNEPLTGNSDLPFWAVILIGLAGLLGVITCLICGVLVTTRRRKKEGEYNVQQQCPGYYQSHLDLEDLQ


Experiments:
ROR1 on cells [1] = target: T4, ROR1 on cells (UniProt Q01973 30-937); assay: flow cytometry (gMFI) on A549 cells
T4 construct: whole, on cells; also called ROR1 endogenous expressed tumor cell A549; ROR1-positive tumor cell lines

ROR1 on cells [2] = target: T4, ROR1 on cells; assay: flow cytometry (gMFI) on A549 cells; remark: listed apart in the source
huMUC16, AA13789-14451 = target: T1, huMUC16, AA13789-14451; assay: binding ELISA on huMUC16 AA13789-14451
human MUC16 on cells [3] = target: T5, human MUC16 on cells (human, UniProt Q8WXI7 1-14507); assay: flow cytometry (GMFI) on OVCAR3 cells, nM is the unit of the x axis Log10[Ab] (nM); curve without upper plateau
T5 construct: whole, on cells; also called huMUC16; MUC16 on OVCAR3 and SNU216 cells

huMUC16, AA14198-14507 = target: T2, huMUC16, AA14198-14507; assay: binding ELISA on huMUC16 AA14198-14507
human MUC16 on cells [4] = target: T5, human MUC16 on cells; assay: flow cytometry (GMFI) on OVCAR3 cells, nM is the unit of the x axis Log10[Ab] (nM); curve without upper plateau; remark: listed apart in the source
human MUC16 on cells [5] = target: T5, human MUC16 on cells; assay: flow cytometry (MFI GeoMean) on OVCAR3 cells, nM is the unit of the x axis Log10[Ab] (nM)
human MUC16 on cells [6] = target: T5, human MUC16 on cells; assay: flow cytometry (GMFI) on OVCAR3 cells, nM is the unit of the x axis Log10[Ab] (nM)
[7] = target: T3, HEK293-MUC16 (13810-14507); assay: flow cytometry (MFI GeoMean) on HEK293-MUC16 (13810-14507) cells, nM is the unit of the x axis Log10[Ab] (nM)
human MUC16 on cells [8] = target: T5, human MUC16 on cells; assay: flow cytometry (MFI GeoMean) on SNU216 cells, nM is the unit of the x axis Log10[Ab] (nM)
human MUC16 = target: T6, human MUC16 (human); assay: binding kinetics, sensorgrams in RU in FIG. 14B, model printed: Kinetics 1:1; form of the MUC16 antigen not given
T6 construct: also called MUC16 antigen of the kinetic assay

Binder	binding result (huMUC16, AA13789-14451)	binding result (huMUC16, AA14198-14507)	EC50 (human MUC16 on cells [4])	EC50 (human MUC16 on cells [5])	EC50 (human MUC16 on cells [6])	EC50 [7]	EC50 (human MUC16 on cells [8])	other results
3C5 (antibody, V domains shown, Anti-ROR1 mAb (chimeric section 9.1); also called anti-ROR1 mAb 3C5) VH: EVKLVESGGGLVKPGGSLKLSCAASGFTFSSYAMSWVRQTPEKRLEWVSSISSGGTTYYPDTVKGRFTISRDNARNILYLQMSSLRSEDTAMYYCARDSLYYGSSLYYAMDYWGQGTSVTVSS VL: DIKMTQSPSSMYASLGERVSITCRASQDIYSYLSWFQQKPGKSPKTLIYRANRLVDGVPSRFSGSGSGQDYSLTISSLEYEDMGIYYCLQYDEFPYTFGGGTKLEIK	–	–	–	–	–	–	–	EC50 (read off the curve) (ROR1 on cells [1]): ~0.04 nM
humanized 3C5 anti-ROR1 mAb (antibody, V domains shown, also called h3C5; h3C5-PTM) VH: EVQLVESGGGLVKPGGSLRLSCAASGFTFSSYAMSWVRQAPGKRLEWVSSISSGGTTYYPDTVKGRFTISRDNAKNSLYLQMNSLRAEDTAVYYCARDALYYGSSLYYAMDYWGQGTLVTVSS VL: DIQMTQSPSSLSASVGDRVTITCRASQDIYSYLSWFQQKPGKAPKTLIYRANRLVDAVPSRFSGSGSGQDYTLTISSLQPEDFATYYCLQYDEFPYTFGQGTKLEIK	–	–	–	–	–	–	–	EC50 (read off the curve) (ROR1 on cells [1]): ~0.04 nM
8F2 (antibody, V domains shown, Anti-ROR1 mAb (chimeric section 9.1); also called anti-ROR1 mAb 8F2) VH: EVQLQQSGPELVKPGASVKMSCKASGYTFTTYVMHWVKQKPGQGLEWIGYINPYNGGIRYNEKFKGKATLTSDKSSSTAYMELSSLTSEDSAVYYCARRERGVYYGMDEWGQGTSVTVSS VL: DVVMTQTPLTLSVTIGQPASISCKSSQSLLHSNGKTYLNWLLQRPGQSPNLLIYLVSKLESGVPDRFSGSGSGTDFTLKISRVEAEDLGVYYCLQATYFPYTFGSGTKLEIK	–	–	–	–	–	–	–	EC50 (read off the curve) (ROR1 on cells [2]): ~0.02 nM
D41 (antibody, V domains shown, Anti-MUC16 mAb) VH: EVQLLESGGGLVQPGGSLRLSCAASGFTFSSYEMNWVRQAPGKGLEWVGRIKSKTDGGTTDYAAPVKGRFTISRDDSKNTLYLQMNSLKTEDTAVYYCTTDLAAVAGLFDYWGQGTTVTVSS VL: DIQLTQSPSSLSASVGDRVTITCQASQDISNYLNWYQQKPGKAPKLLIYDASNLETGVPSRFSGSGSGTDFTLTISSLQPEDFATYYCQQSYSTPWKFGQGTKVEIK	binds	no binding (tested: 100 nM)	–	–	–	–	–	EC50 (human MUC16 on cells [3]): 23.1 nM
D79 (antibody, V domains shown, Anti-MUC16 mAb) VH: QMQLVQSGAEVKKPGSSVKVSCKASGGTFSSYAISWVRQAPGQGLEWMGGIIPIFGTANYAQKFQGRVTITADESTSTAYMELSSLRSEDTAVYYCARDSGSSITMVRGGDYYYMDVWGKGTTVTVSS VL: not shown	binds	no binding (tested: 100 nM)	40.6 nM	–	–	–	–	–
D100 (antibody, V domains shown, Anti-MUC16 mAb; also called MUC16-D100) VH: QVQLVQSGAEVKKPGSSVKVSCKASGGTFSRYHAISWVRQAPGQGLEWMGGIIPILGTANYAQKFQGRVTITADESTSTAYMELSSLRSEDTAVYYCASGTTAARYYYYYYYMDVWGKGTTVTVSS VL: NIQMTQSPSSLSASVGDRVTITCQASQDISNYLNWFHQKPGKAPNLLIYDASNLETGVPSRFSGSGSGTDFTFTISSLQPEDIGTYYCQQYDNLPLTFGGGTKVDIK	binds	no binding (tested: 100 nM)	–	0.286 nM	0.395 nM	0.0874 nM	0.12 nM	–
B76 (antibody, V domains shown, Anti-MUC16 mAb) VH: QMQLVQSGAEVKKPGSSVKVSCKASGGTFSSYAISWVRQAPGQGLEWMGGIIPIFGTANYAQKFQGRVTITADESTSTAYMELSSLRSEDTAVYYCARSITDYYDSSGYYFRPHFNTGYYYGMDVWGQGTTVTVSS VL: NIQLTQSPSSLSASVGDRVTITCRASQGINNYLAWYQQKPGKVPKLLIYAASTLQSGVPSRFSGSGSGTDFTLTITNLQPDDFATYYCQQYDTFSETFGPGTKVEIK	binds	no binding (tested: 100 nM)	16.8 nM	–	–	–	–	–
B218 (antibody, V domains shown, Anti-MUC16 mAb; also called MUC16-B218) VH: EVQLLESGAEVKKPGSSVKVSCKASGGTFSSYAISWVRQAPGQGLEWMGGIIPIFGTANYAQKFQGRVTITADESTSTAYMELSSLRSEDTAVYYCARGGPHYDFWSGYTPGQHGGAFDIWGQGTMVTVSS VL: NIQMTQSPSTLSASLGDRVSITCRASQSISGWLAWYQQKPGKAPKLLIYRTSYLESGVPSRFSAGGSGTEFTLTISSLQPDDFATYYCQHYDTFSRAFGQGTKVDIK	binds	no binding (tested: 100 nM)	–	0.907 nM	0.687 nM	0.244 nM	0.76 nM	Kd (human MUC16): 6.17 nM; koff (human MUC16): 0.0031 s⁻¹; kon (human MUC16): 502000 M⁻¹ s⁻¹
B195 (antibody, V domains shown, Anti-MUC16 mAb) VH: EVQLVQSGAEVKKPGASVKVSCKASGGTFSSYAISWVRQAPGQGLEWMGGIIPIFGTANYAQKFQGRVTITADESTSTAYMELSSLRSEDTAVYYCAREGPDYGDYSWSMDYYYGMDVWGQGTMVTVSS VL: EIVMTQSPGTLSLSPGERATLSCRASQSVNSRYLAWYQHKPGQAPRLLMYGASTRATGIPDRFSGSGSGTDFTLTISRLEPEDFAVYYCQQYGTFSITFGQGTRLEIK	binds	no binding (tested: 100 nM)	15.1 nM	–	–	–	–	–
D57 (antibody, V domains shown, Anti-MUC16 mAb; also called MUC16-D57) VH: EVQLLESGGGLVTPGGSLRLSCTASGFTFSDYYLSWVRQAPGKGLEWMGGIIPIFGTANYAQKFQGRVTITADESTSTAYMELSSLRSEDTAVYYCARGGPHYDFWSGYTPGQHGGAFDIWGQGTMVTVSS VL: EIVLTQSPGTLSLSPGERATLSCRASQSVSSSYLAWYQQKPGQAPRLLIYGASSRATGIPDRFSGSGSGTDFTLTISRLEPEDFAVYYCQQRSNWRNTFGQGTRLEIK	–	–	–	0.763 nM	0.526 nM	0.579 nM	1.24 nM	Kd (human MUC16): 5.26 nM; koff (human MUC16): 0.0035 s⁻¹
